The values that follow come from doi:10.1101/2020.12.08.415968 (bioRxiv, 2020).

The target of the assay is T1, SiRHP (sulfite reductase hemoprotein, full length, hydrogenated) (Escherichia coli, UniProt P17846 1-570).
T1 sequence (looked up): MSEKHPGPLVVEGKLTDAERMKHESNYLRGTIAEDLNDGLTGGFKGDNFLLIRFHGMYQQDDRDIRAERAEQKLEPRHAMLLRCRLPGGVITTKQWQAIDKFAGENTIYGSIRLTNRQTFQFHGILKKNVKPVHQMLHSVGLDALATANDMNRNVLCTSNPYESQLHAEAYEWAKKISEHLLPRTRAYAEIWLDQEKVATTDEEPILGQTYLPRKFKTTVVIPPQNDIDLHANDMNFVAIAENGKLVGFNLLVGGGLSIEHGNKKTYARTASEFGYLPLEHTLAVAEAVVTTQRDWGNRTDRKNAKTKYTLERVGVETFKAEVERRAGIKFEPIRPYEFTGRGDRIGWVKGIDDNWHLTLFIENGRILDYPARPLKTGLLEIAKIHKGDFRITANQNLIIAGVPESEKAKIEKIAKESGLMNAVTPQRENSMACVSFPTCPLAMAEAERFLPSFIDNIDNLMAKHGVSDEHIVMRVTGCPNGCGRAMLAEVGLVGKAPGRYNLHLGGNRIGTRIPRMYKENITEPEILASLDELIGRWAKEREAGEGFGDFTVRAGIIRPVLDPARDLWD
Nature of the assay: AUC.

B1: SiRFP-60 (monomeric 60 kDa sulfite reductase flavoprotein, 52 N-terminal amino acids removed) (domain or fragment, Escherichia coli, UniProt P38038 53-599, looked up)
chain: ATPAPAAEMPGITIISASQTGNARRVAEALRDDLLAAKLNVKLVNAGDYKFKQIASEKLLIVVTSTQGEGEPPEEAVALHKFLFSKKAPKLENTAFAVFSLGDSSYEFFCQSGKDFDSKLAELGGERLLDRVDADVEYQAAASEWRARVVDALKSRAPVAAPSQSVATGAVNEIHTSPYSKDAPLVASLSVNQKITGRNSEKDVRHIEIDLGDSGMRYQPGDALGVWYQNDPALVKELVELLWLKGDEPVTVEGKTLPLNEALQWHFELTVNTANIVENYATLTRSETLLPLVGDKAKLQHYAATTPIVDMVRFSPAQLDAEALINLLRPLTPRLYSIASSQAEVENEVHVTVGVVRYDVEGRARAGGASSFLADRVEEEGEVRVFIEHNDNFRLPANPETPVIMIGPGTGIAPFRAFMQQRAADEAPGKNWLFFGNPHFTEDFLYQVEWQRYVKDGVLTRIDLAWSRDQKEKVYVQDKLREQGAELWRWINDGAHIYVCGDANRMAKDVEQALLEVIAEFGGMDTEAADEFLSELRVERRYQRDVY
Turning to B1, the binding result is given as “binds”.
